# Test results taken from paper PMC9482650, “Quantitative fragmentomics allow affinity mapping of interactomes” (Nature Communications, 2022).
# Biological target: LNX1_1, Q8TBB1
# Experiment: holdup assay
# Parameters: key: below the threshold = too weak to quantify, mostly under pKd 3.1 to 4
# Conditions: plain residues with an end cap or a label only (N-terminal biotin on a linker: ado-ado)
# Sequence of LNX1_1, Q8TBB1 (Q8TBB1 261-371): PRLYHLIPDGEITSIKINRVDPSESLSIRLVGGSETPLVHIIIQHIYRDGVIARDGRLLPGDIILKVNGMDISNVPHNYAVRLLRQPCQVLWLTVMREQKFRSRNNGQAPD
row,Binder,pKd
1,"DDENIRTSDV [PLEKHA2, Q9HB19]",4.5
2,"TSQESEDTYL [TBC1D10A, Q9BXI6]",below the threshold

# Biological target: PDZRN4_1, Q6ZMN7
# Experiment: holdup assay
# Parameters: key: below the threshold = too weak to quantify, mostly under pKd 3.1 to 4
# Conditions: plain residues with an end cap or a label only (N-terminal biotin on a linker: ado-ado)
# Sequence of PDZRN4_1, Q6ZMN7 (Q6ZMN7 213-318): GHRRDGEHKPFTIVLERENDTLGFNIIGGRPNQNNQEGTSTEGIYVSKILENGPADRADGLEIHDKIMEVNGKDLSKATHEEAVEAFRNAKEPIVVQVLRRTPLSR
row,Binder,pKd
1,"DDENIRTSDV [PLEKHA2, Q9HB19]",below the threshold
2,"TSQESEDTYL [TBC1D10A, Q9BXI6]",3.8

# Biological target: GRASP, Q7Z6J2
# Experiment: holdup assay
# Parameters: key: below the threshold = too weak to quantify, mostly under pKd 3.1 to 4
# Conditions: plain residues with an end cap or a label only (N-terminal biotin on a linker: ado-ado)
# Sequence of GRASP, Q7Z6J2 (Q7Z6J2 96-193): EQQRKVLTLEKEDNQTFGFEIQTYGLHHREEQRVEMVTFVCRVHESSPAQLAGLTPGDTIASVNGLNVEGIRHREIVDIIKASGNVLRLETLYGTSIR
row,Binder,pKd
1,"DDENIRTSDV [PLEKHA2, Q9HB19]",3.82
2,"TSQESEDTYL [TBC1D10A, Q9BXI6]",below the threshold

# Biological target: Inadl_9, Q8NI35
# Experiment: holdup assay
# Parameters: key: below the threshold = too weak to quantify, mostly under pKd 3.1 to 4
# Conditions: plain residues with an end cap or a label only (N-terminal biotin on a linker: ado-ado)
# Sequence of Inadl_9, Q8NI35 (Q8NI35 1530-1615): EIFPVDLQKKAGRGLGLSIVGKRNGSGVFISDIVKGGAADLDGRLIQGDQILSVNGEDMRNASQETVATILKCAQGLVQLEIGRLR
row,Binder,pKd
1,"DDENIRTSDV [PLEKHA2, Q9HB19]",below the threshold
2,"TSQESEDTYL [TBC1D10A, Q9BXI6]",3.58

# Biological target: T1, TX1BP3, O14907
# T1 sequence (O14907 10-122, limits assumed, looked up): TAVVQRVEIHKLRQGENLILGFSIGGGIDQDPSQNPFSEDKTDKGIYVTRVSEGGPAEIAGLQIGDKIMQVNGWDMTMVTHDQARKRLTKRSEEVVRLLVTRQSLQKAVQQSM
# Experiment: holdup assay
# Parameters: key: below the threshold = too weak to quantify, mostly under pKd 3.1 to 4
# Conditions: plain residues with an end cap or a label only (N-terminal biotin on a linker: ado-ado)
row,Binder,pKd
1,"DDENIRTSDV [PLEKHA2, Q9HB19]",4.75
2,"TSQESEDTYL [TBC1D10A, Q9BXI6]",below the threshold

# Biological target: T2, LIN7A, O14910
# T2 sequence (O14910 103-200, limits assumed, looked up): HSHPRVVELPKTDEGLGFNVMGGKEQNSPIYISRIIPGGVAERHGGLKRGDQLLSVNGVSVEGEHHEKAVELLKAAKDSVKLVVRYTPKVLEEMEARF
# Experiment: holdup assay
# Parameters: key: below the threshold = too weak to quantify, mostly under pKd 3.1 to 4
# Conditions: plain residues with an end cap or a label only (N-terminal biotin on a linker: ado-ado)
row,Binder,pKd
1,"DDENIRTSDV [PLEKHA2, Q9HB19]",below the threshold
2,"TSQESEDTYL [TBC1D10A, Q9BXI6]",below the threshold

# Biological target: T3, FRMPD1, Q5SYB0
# T3 sequence (Q5SYB0 52-145, limits assumed, looked up): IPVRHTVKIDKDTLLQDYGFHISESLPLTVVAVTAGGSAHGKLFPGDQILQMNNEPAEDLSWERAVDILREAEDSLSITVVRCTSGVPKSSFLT
# Experiment: holdup assay
# Parameters: key: below the threshold = too weak to quantify, mostly under pKd 3.1 to 4
# Conditions: plain residues with an end cap or a label only (N-terminal biotin on a linker: ado-ado)
row,Binder,pKd
1,"DDENIRTSDV [PLEKHA2, Q9HB19]",below the threshold
2,"TSQESEDTYL [TBC1D10A, Q9BXI6]",below the threshold

# Biological target: T4, PTPN13_1, Q12923
# T4 sequence (Q12923 1088-1188, limits assumed, looked up): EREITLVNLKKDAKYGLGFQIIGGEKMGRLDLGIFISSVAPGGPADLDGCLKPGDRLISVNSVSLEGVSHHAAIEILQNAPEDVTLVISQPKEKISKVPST
# Experiment: holdup assay
# Parameters: key: below the threshold = too weak to quantify, mostly under pKd 3.1 to 4
# Conditions: plain residues with an end cap or a label only (N-terminal biotin on a linker: ado-ado)
row,Binder,pKd
1,"DDENIRTSDV [PLEKHA2, Q9HB19]",below the threshold
2,"TSQESEDTYL [TBC1D10A, Q9BXI6]",below the threshold

# Biological target: T5, ARHGEF11, O15085
# T5 sequence (O15085 42-136, limits assumed, looked up): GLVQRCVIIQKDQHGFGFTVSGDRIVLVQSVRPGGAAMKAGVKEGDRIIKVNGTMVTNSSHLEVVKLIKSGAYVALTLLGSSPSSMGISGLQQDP
# Experiment: holdup assay
# Parameters: key: below the threshold = too weak to quantify, mostly under pKd 3.1 to 4
# Conditions: plain residues with an end cap or a label only (N-terminal biotin on a linker: ado-ado)
row,Binder,pKd
1,"DDENIRTSDV [PLEKHA2, Q9HB19]",4.2
2,"TSQESEDTYL [TBC1D10A, Q9BXI6]",below the threshold

# Biological target: MAGI2_2, Q86UL8
# Experiment: holdup assay
# Parameters: key: below the threshold = too weak to quantify, mostly under pKd 3.1 to 4
# Conditions: plain residues with an end cap or a label only (N-terminal biotin on a linker: ado-ado)
# Sequence of MAGI2_2, Q86UL8 (Q86UL8 410-522): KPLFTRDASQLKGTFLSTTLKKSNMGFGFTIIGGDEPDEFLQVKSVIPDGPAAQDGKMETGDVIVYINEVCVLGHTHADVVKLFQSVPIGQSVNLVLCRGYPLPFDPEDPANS
row,Binder,pKd
1,"DDENIRTSDV [PLEKHA2, Q9HB19]",below the threshold
2,"TSQESEDTYL [TBC1D10A, Q9BXI6]",below the threshold

# Biological target: DLG5_1, Q8TDM6
# Experiment: holdup assay
# Parameters: key: below the threshold = too weak to quantify, mostly under pKd 3.1 to 4
# Conditions: plain residues with an end cap or a label only (N-terminal biotin on a linker: ado-ado)
# Sequence of DLG5_1, Q8TDM6 (Q8TDM6 617-713): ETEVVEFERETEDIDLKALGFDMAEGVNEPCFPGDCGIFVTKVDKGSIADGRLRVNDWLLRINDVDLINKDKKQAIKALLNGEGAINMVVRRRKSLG
row,Binder,pKd
1,"DDENIRTSDV [PLEKHA2, Q9HB19]",below the threshold
2,"TSQESEDTYL [TBC1D10A, Q9BXI6]",below the threshold

# Biological target: DLG1_1, Q12959
# Experiment: holdup assay
# Parameters: key: below the threshold = too weak to quantify, mostly under pKd 3.1 to 4
# Conditions: plain residues with an end cap or a label only (N-terminal biotin on a linker: ado-ado)
row,Binder,pKd
1,"DDENIRTSDV [PLEKHA2, Q9HB19]",3.8
2,"TSQESEDTYL [TBC1D10A, Q9BXI6]",below the threshold

# Biological target: Inadl_5, Q8NI35
# Experiment: holdup assay
# Parameters: key: below the threshold = too weak to quantify, mostly under pKd 3.1 to 4
# Conditions: plain residues with an end cap or a label only (N-terminal biotin on a linker: ado-ado)
# Sequence of Inadl_5, Q8NI35 (Q8NI35 673-780): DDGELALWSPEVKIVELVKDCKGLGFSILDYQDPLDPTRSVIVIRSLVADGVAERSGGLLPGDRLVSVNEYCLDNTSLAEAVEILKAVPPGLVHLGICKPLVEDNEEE
row,Binder,pKd
1,"DDENIRTSDV [PLEKHA2, Q9HB19]",below the threshold
2,"TSQESEDTYL [TBC1D10A, Q9BXI6]",below the threshold

# Biological target: Inadl_1, Q8NI35
# Experiment: holdup assay
# Parameters: key: below the threshold = too weak to quantify, mostly under pKd 3.1 to 4
# Conditions: plain residues with an end cap or a label only (N-terminal biotin on a linker: ado-ado)
# Sequence of Inadl_1, Q8NI35 (Q8NI35 113-229): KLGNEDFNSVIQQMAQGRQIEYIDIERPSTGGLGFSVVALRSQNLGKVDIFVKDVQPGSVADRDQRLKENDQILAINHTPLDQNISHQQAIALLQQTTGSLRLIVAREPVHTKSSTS
row,Binder,pKd
1,"DDENIRTSDV [PLEKHA2, Q9HB19]",below the threshold
2,"TSQESEDTYL [TBC1D10A, Q9BXI6]",below the threshold

# Biological target: T6, DLG3_2, Q92796
# T6 sequence (Q92796 221-321, limits assumed, looked up): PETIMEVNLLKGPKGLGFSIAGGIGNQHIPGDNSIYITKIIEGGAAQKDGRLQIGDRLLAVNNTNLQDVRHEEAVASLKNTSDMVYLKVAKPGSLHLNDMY
# Experiment: holdup assay
# Parameters: key: below the threshold = too weak to quantify, mostly under pKd 3.1 to 4
# Conditions: plain residues with an end cap or a label only (N-terminal biotin on a linker: ado-ado)
row,Binder,pKd
1,"DDENIRTSDV [PLEKHA2, Q9HB19]",4.38
2,"TSQESEDTYL [TBC1D10A, Q9BXI6]",3.61

# Biological target: GORASP2, Q9H8Y8
# Experiment: holdup assay
# Parameters: key: below the threshold = too weak to quantify, mostly under pKd 3.1 to 4
# Conditions: plain residues with an end cap or a label only (N-terminal biotin on a linker: ado-ado)
row,Binder,pKd
1,"DDENIRTSDV [PLEKHA2, Q9HB19]",below the threshold
2,"TSQESEDTYL [TBC1D10A, Q9BXI6]",below the threshold

# Biological target: T7, MPDZ_12, O75970
# T7 sequence (O75970 1857-1958, limits assumed, looked up): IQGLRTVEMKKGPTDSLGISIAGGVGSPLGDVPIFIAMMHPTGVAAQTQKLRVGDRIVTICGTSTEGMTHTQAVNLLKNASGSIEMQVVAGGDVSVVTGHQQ
# Experiment: holdup assay
# Parameters: key: below the threshold = too weak to quantify, mostly under pKd 3.1 to 4
# Conditions: plain residues with an end cap or a label only (N-terminal biotin on a linker: ado-ado)
row,Binder,pKd
1,"DDENIRTSDV [PLEKHA2, Q9HB19]",below the threshold
2,"TSQESEDTYL [TBC1D10A, Q9BXI6]",below the threshold

# Biological target: GIPC2, Q8TF65
# Experiment: holdup assay
# Parameters: key: below the threshold = too weak to quantify, mostly under pKd 3.1 to 4
# Conditions: plain residues with an end cap or a label only (N-terminal biotin on a linker: ado-ado)
# Sequence of GIPC2, Q8TF65 (Q8TF65 112-203): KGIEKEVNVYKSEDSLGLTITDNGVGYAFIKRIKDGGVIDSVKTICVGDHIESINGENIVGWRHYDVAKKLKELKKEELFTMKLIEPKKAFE
row,Binder,pKd
1,"DDENIRTSDV [PLEKHA2, Q9HB19]",3.84
2,"TSQESEDTYL [TBC1D10A, Q9BXI6]",below the threshold

# Biological target: DLG2_3, Q15700
# Experiment: holdup assay
# Parameters: key: below the threshold = too weak to quantify, mostly under pKd 3.1 to 4
# Conditions: plain residues with an end cap or a label only (N-terminal biotin on a linker: ado-ado)
row,Binder,pKd
1,"DDENIRTSDV [PLEKHA2, Q9HB19]",below the threshold
2,"TSQESEDTYL [TBC1D10A, Q9BXI6]",below the threshold

# Biological target: T8, SHANK1, Q9Y566
# T8 sequence (Q9Y566 658-767, limits assumed, looked up): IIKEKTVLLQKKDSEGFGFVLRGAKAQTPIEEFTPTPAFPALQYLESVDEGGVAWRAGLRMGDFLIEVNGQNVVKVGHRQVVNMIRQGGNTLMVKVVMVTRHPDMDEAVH
# Experiment: holdup assay
# Parameters: key: below the threshold = too weak to quantify, mostly under pKd 3.1 to 4
# Conditions: plain residues with an end cap or a label only (N-terminal biotin on a linker: ado-ado)
row,Binder,pKd
1,"DDENIRTSDV [PLEKHA2, Q9HB19]",below the threshold
2,"TSQESEDTYL [TBC1D10A, Q9BXI6]",4.99

# Biological target: NHERF2_2, Q15599
# Experiment: holdup assay
# Parameters: key: below the threshold = too weak to quantify, mostly under pKd 3.1 to 4
# Conditions: plain residues with an end cap or a label only (N-terminal biotin on a linker: ado-ado)
# Sequence of NHERF2_2, Q15599 (Q15599 142-238): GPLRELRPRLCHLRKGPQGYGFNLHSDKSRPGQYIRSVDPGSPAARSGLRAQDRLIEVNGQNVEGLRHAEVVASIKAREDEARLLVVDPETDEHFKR
row,Binder,pKd
1,"DDENIRTSDV [PLEKHA2, Q9HB19]",below the threshold
2,"TSQESEDTYL [TBC1D10A, Q9BXI6]",5.52

# Biological target: GRID2IP_1, A4D2P6
# Experiment: holdup assay
# Parameters: key: below the threshold = too weak to quantify, mostly under pKd 3.1 to 4
# Conditions: plain residues with an end cap or a label only (N-terminal biotin on a linker: ado-ado)
# Sequence of GRID2IP_1, A4D2P6 (A4D2P6 1-87): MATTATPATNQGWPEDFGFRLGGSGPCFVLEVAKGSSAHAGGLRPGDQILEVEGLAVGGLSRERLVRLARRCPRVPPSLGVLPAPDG
row,Binder,pKd
1,"DDENIRTSDV [PLEKHA2, Q9HB19]",below the threshold
2,"TSQESEDTYL [TBC1D10A, Q9BXI6]",below the threshold

# Biological target: MAGI2_3, Q86UL8
# Experiment: holdup assay
# Parameters: key: below the threshold = too weak to quantify, mostly under pKd 3.1 to 4
# Conditions: plain residues with an end cap or a label only (N-terminal biotin on a linker: ado-ado)
# Sequence of MAGI2_3, Q86UL8 (Q86UL8 600-682): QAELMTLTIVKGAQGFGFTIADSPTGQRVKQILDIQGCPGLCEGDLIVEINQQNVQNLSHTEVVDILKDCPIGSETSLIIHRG
row,Binder,pKd
1,"DDENIRTSDV [PLEKHA2, Q9HB19]",below the threshold
2,"TSQESEDTYL [TBC1D10A, Q9BXI6]",below the threshold

# Biological target: NHERF4_4, Q86UT5
# Experiment: holdup assay
# Parameters: key: below the threshold = too weak to quantify, mostly under pKd 3.1 to 4
# Conditions: plain residues with an end cap or a label only (N-terminal biotin on a linker: ado-ado)
# Sequence of NHERF4_4, Q86UT5 (Q86UT5 464-550): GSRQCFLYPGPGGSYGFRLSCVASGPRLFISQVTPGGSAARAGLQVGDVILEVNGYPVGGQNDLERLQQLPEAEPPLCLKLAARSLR
row,Binder,pKd
1,"DDENIRTSDV [PLEKHA2, Q9HB19]",below the threshold
2,"TSQESEDTYL [TBC1D10A, Q9BXI6]",below the threshold

# Biological target: PTPN3, P26045
# Experiment: holdup assay
# Parameters: key: below the threshold = too weak to quantify, mostly under pKd 3.1 to 4
# Conditions: plain residues with an end cap or a label only (N-terminal biotin on a linker: ado-ado)
# Sequence of PTPN3, P26045 (P26045 505-587): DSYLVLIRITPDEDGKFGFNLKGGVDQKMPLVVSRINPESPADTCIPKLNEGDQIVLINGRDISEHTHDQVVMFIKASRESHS
row,Binder,pKd
1,"DDENIRTSDV [PLEKHA2, Q9HB19]",4.6
2,"TSQESEDTYL [TBC1D10A, Q9BXI6]",4.88

# Biological target: Inadl_10, Q8NI35
# Experiment: holdup assay
# Parameters: key: below the threshold = too weak to quantify, mostly under pKd 3.1 to 4
# Conditions: plain residues with an end cap or a label only (N-terminal biotin on a linker: ado-ado)
# Sequence of Inadl_10, Q8NI35 (Q8NI35 1673-1763): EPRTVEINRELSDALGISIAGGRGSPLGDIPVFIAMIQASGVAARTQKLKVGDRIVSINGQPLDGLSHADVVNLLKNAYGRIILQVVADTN
row,Binder,pKd
1,"DDENIRTSDV [PLEKHA2, Q9HB19]",below the threshold
2,"TSQESEDTYL [TBC1D10A, Q9BXI6]",below the threshold

# Biological target: T9, PCLO, Q9Y6V0
# T9 sequence (Q9Y6V0 4491-4600, limits assumed, looked up): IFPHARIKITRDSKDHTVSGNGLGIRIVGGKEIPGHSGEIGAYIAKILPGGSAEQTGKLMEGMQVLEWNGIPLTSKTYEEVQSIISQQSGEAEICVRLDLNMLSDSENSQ
# Experiment: holdup assay
# Parameters: key: below the threshold = too weak to quantify, mostly under pKd 3.1 to 4
# Conditions: plain residues with an end cap or a label only (N-terminal biotin on a linker: ado-ado)
row,Binder,pKd
1,"DDENIRTSDV [PLEKHA2, Q9HB19]",below the threshold
2,"TSQESEDTYL [TBC1D10A, Q9BXI6]",below the threshold

# Biological target: MAST2, Q6P0Q8
# Experiment: holdup assay
# Parameters: key: below the threshold = too weak to quantify, mostly under pKd 3.1 to 4
# Conditions: plain residues with an end cap or a label only (N-terminal biotin on a linker: ado-ado)
# Sequence of MAST2, Q6P0Q8 (Q6P0Q8 1099-1202): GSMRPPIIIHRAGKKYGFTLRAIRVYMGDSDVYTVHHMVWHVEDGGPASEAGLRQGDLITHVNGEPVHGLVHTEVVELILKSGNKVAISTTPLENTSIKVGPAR
row,Binder,pKd
1,"DDENIRTSDV [PLEKHA2, Q9HB19]",4.9
2,"TSQESEDTYL [TBC1D10A, Q9BXI6]",5.41

# Biological target: MAGI2_6, Q86UL8
# Experiment: holdup assay
# Parameters: key: below the threshold = too weak to quantify, mostly under pKd 3.1 to 4
# Conditions: plain residues with an end cap or a label only (N-terminal biotin on a linker: ado-ado)
# Sequence of MAGI2_6, Q86UL8 (Q86UL8 1141-1229): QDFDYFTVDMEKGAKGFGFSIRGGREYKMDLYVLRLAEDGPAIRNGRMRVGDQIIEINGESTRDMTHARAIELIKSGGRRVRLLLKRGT
row,Binder,pKd
1,"DDENIRTSDV [PLEKHA2, Q9HB19]",5.21
2,"TSQESEDTYL [TBC1D10A, Q9BXI6]",3.98
